# In the supplement of paper PMC9112550, “Optimization of the antimicrobial peptide Bac7 by deep mutational scanning” (BMC Biology, 2022):
# System: Escherichia coli TOP10
# Test: shrunken log2 fold change of peptide-encoding DNA abundance (4.5 h post-induction vs induction); higher = less antimicrobial activity (less host growth inhibition)
# Conditions: time post-induction: 4.5 h; library: site-saturation at positions 5, 18, 19, 20
# 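Further: peptides expressed intracellularly from a pBAD plasmid library in pooled LB shake-flask culture, induced with 0.3% L-arabinose, DNA abundance read by NGS, three biological replicates, DESeq2 with apeglm shrinkage.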
row,Sequence,shrunken log2 fold change
1,RRIRKRPPRLPRPRPRPNIGPRP,-0.05
2,RRIRKRPPRLPRPRPRPNLAPRP,0.25
3,RRIRKRPPRLPRPRPRPNLDPRP,-0.0443
4,RRIRKRPPRLPRPRPRPNLGPRP,0.207
5,RRIRKRPPRLPRPRPRPNMHPRP,0.19
6,RRIRKRPPRLPRPRPRPNMIPRP,0.0348
7,RRIRKRPPRLPRPRPRPNMQPRP,0.26
8,RRIRKRPPRLPRPRPRPNNQPRP,-0.219
9,RRIRKRPPRLPRPRPRPNPMPRP,0.459
10,RRIRKRPPRLPRPRPRPNQQPRP,0.101
11,RRIRKRPPRLPRPRPRPNSCPRP,0.188
12,RRIRKRPPRLPRPRPRPNSYPRP,0.141
13,RRIRKRPPRLPRPRPRPNTCPRP,0.0343
14,RRIRKRPPRLPRPRPRPNVHPRP,0.273
15,RRIRKRPPRLPRPRPRPNVMPRP,-0.122
16,RRIRKRPPRLPRPRPRPNVNPRP,-0.0135
17,RRIRKRPPRLPRPRPRPNWTPRP,-0.129
18,RRIRKRPPRLPRPRPRPNYQPRP,-0.0219
19,RRIRKRPPRLPRPRPRPPAMPRP,0.635
20,RRIRKRPPRLPRPRPRPPCRPRP,0.264
21,RRIRKRPPRLPRPRPRPPDLPRP,0.444
22,RRIRKRPPRLPRPRPRPPEMPRP,0.262

row,Sequence,shrunken log2 fold change
1,RRIRKRPPRLPRPRPRPPFFPRP,0.476
2,RRIRKRPPRLPRPRPRPPFSPRP,-0.227
3,RRIRKRPPRLPRPRPRPPFTPRP,0.243
4,RRIRKRPPRLPRPRPRPPGAPRP,1.3
5,RRIRKRPPRLPRPRPRPPGEPRP,0.617
6,RRIRKRPPRLPRPRPRPPGMPRP,0.473
7,RRIRKRPPRLPRPRPRPPGSPRP,0.618
8,RRIRKRPPRLPRPRPRPPIIPRP,-0.146
9,RRIRKRPPRLPRPRPRPPKSPRP,0.462
10,RRIRKRPPRLPRPRPRPPLDPRP,0.809
11,RRIRKRPPRLPRPRPRPPLVPRP,0.598
12,RRIRKRPPRLPRPRPRPPLYPRP,0.948
13,RRIRKRPPRLPRPRPRPPMSPRP,0.328
14,RRIRKRPPRLPRPRPRPPMYPRP,-0.0675
15,RRIRKRPPRLPRPRPRPPNFPRP,0.0909
16,RRIRKRPPRLPRPRPRPPPHPRP,0.781
17,RRIRKRPPRLPRPRPRPPQAPRP,0.0481
18,RRIRKRPPRLPRPRPRPPQDPRP,0.636
19,RRIRKRPPRLPRPRPRPPQMPRP,0.278
20,RRIRKRPPRLPRPRPRPPRFPRP,0.733
21,RRIRKRPPRLPRPRPRPPRRPRP,1.04
22,RRIRKRPPRLPRPRPRPPRSPRP,2.69

row,Sequence,shrunken log2 fold change
1,RRIRKRPPRLPRPRPRPPSAPRP,0.798
2,RRIRKRPPRLPRPRPRPPTPPRP,0.796
3,RRIRKRPPRLPRPRPRPPTSPRP,0.146
4,RRIRKRPPRLPRPRPRPPTTPRP,0.452
5,RRIRKRPPRLPRPRPRPPVEPRP,0.13
6,RRIRKRPPRLPRPRPRPPVFPRP,-0.00134
7,RRIRKRPPRLPRPRPRPPVHPRP,0.273
8,RRIRKRPPRLPRPRPRPPVRPRP,0.265
9,RRIRKRPPRLPRPRPRPPWCPRP,0.401
10,RRIRKRPPRLPRPRPRPPWQPRP,0.236
11,RRIRKRPPRLPRPRPRPPWWPRP,0.777
12,RRIRKRPPRLPRPRPRPPYFPRP,-0.101
13,RRIRKRPPRLPRPRPRPPYVPRP,0.0388
14,RRIRKRPPRLPRPRPRPQAHPRP,0.266
15,RRIRKRPPRLPRPRPRPQATPRP,0.0984
16,RRIRKRPPRLPRPRPRPQECPRP,-0.00957
17,RRIRKRPPRLPRPRPRPQEDPRP,0.0977
18,RRIRKRPPRLPRPRPRPQEGPRP,-0.00136
19,RRIRKRPPRLPRPRPRPQEIPRP,0.0636
20,RRIRKRPPRLPRPRPRPQFPPRP,-0.00782
21,RRIRKRPPRLPRPRPRPQGCPRP,0.421
22,RRIRKRPPRLPRPRPRPQGIPRP,0.114

row,Sequence,shrunken log2 fold change
1,RRIRKRPPRLPRPRPRPQHEPRP,0.198
2,RRIRKRPPRLPRPRPRPQHIPRP,-0.243
3,RRIRKRPPRLPRPRPRPQHMPRP,0.0396
4,RRIRKRPPRLPRPRPRPQHRPRP,0.148
5,RRIRKRPPRLPRPRPRPQIIPRP,0.0891
6,RRIRKRPPRLPRPRPRPQIVPRP,0.119
7,RRIRKRPPRLPRPRPRPQKAPRP,-0.0155
8,RRIRKRPPRLPRPRPRPQKNPRP,0.319
9,RRIRKRPPRLPRPRPRPQMLPRP,-0.167
10,RRIRKRPPRLPRPRPRPQNPPRP,0.0671
11,RRIRKRPPRLPRPRPRPQNRPRP,-0.169
12,RRIRKRPPRLPRPRPRPQPGPRP,0.406
13,RRIRKRPPRLPRPRPRPQQVPRP,-0.0532
14,RRIRKRPPRLPRPRPRPQSNPRP,0.0971
15,RRIRKRPPRLPRPRPRPQSTPRP,-0.0185
16,RRIRKRPPRLPRPRPRPQVSPRP,-0.0595
17,RRIRKRPPRLPRPRPRPQVTPRP,-0.0535
18,RRIRKRPPRLPRPRPRPQWTPRP,0.0894
19,RRIRKRPPRLPRPRPRPQYGPRP,-0.0781
20,RRIRKRPPRLPRPRPRPQYNPRP,-0.67
21,RRIRKRPPRLPRPRPRPRAAPRP,1.13
22,RRIRKRPPRLPRPRPRPRCYPRP,-0.181

row,Sequence,shrunken log2 fold change
1,RRIRKRPPRLPRPRPRPRDWPRP,0.935
2,RRIRKRPPRLPRPRPRPRDYPRP,0.0161
3,RRIRKRPPRLPRPRPRPRFMPRP,0.102
4,RRIRKRPPRLPRPRPRPRGFPRP,0.18
5,RRIRKRPPRLPRPRPRPRHAPRP,0.727
6,RRIRKRPPRLPRPRPRPRIVPRP,0.161
7,RRIRKRPPRLPRPRPRPRNEPRP,0.0551
8,RRIRKRPPRLPRPRPRPRNIPRP,-0.116
9,RRIRKRPPRLPRPRPRPRNYPRP,0.374
10,RRIRKRPPRLPRPRPRPRPHPRP,0.762
11,RRIRKRPPRLPRPRPRPRREPRP,0.853
12,RRIRKRPPRLPRPRPRPRRIPRP,0.339
13,RRIRKRPPRLPRPRPRPRSRPRP,0.418
14,RRIRKRPPRLPRPRPRPRTCPRP,-0.202
15,RRIRKRPPRLPRPRPRPRTEPRP,1.04
16,RRIRKRPPRLPRPRPRPRTSPRP,0.525
17,RRIRKRPPRLPRPRPRPRWDPRP,0.118
18,RRIRKRPPRLPRPRPRPRWHPRP,0.0132
19,RRIRKRPPRLPRPRPRPRYFPRP,0.135
20,RRIRKRPPRLPRPRPRPRYRPRP,-0.0384
21,RRIRKRPPRLPRPRPRPSALPRP,0.271
